Assay results from IntAct's records for PubMed 15197186.

Target: mob1a_human MOB1A (UniProt Q9H8S9)
Sequence (Q9H8S9 whole entry): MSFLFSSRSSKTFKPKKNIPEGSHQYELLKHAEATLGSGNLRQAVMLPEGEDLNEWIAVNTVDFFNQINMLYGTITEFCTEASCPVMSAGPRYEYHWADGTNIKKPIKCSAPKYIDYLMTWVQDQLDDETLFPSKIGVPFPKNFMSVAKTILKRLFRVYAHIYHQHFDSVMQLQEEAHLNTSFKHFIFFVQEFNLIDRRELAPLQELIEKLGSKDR

Chain of Serine/threonine-protein kinase 38 (Homo sapiens), Q15208 R41A (Q15208 whole entry R41A): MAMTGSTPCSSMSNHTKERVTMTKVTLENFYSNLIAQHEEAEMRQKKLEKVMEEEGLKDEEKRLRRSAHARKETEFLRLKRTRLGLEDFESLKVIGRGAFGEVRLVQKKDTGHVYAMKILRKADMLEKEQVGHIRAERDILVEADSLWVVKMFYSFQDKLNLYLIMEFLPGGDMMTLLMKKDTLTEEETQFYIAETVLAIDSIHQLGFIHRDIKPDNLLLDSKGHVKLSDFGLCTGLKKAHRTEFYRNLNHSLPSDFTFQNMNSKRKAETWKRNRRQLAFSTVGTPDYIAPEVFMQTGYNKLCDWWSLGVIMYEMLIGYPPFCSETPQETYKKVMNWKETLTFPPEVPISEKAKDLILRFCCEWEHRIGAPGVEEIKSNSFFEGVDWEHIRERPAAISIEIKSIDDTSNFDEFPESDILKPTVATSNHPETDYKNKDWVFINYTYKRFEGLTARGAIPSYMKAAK
Chain of Serine/threonine-protein kinase 38 (Homo sapiens), Q15208 T74A (Q15208 whole entry T74A): as the sequence (Q15208 whole entry R41A) above, with A41R, T74A counted along it
Chain of Serine/threonine-protein kinase 38 (Homo sapiens), Q15208 L79A (Q15208 whole entry L79A): as the sequence (Q15208 whole entry R41A) above, with A41R, L79A counted along it
Chain of Serine/threonine-protein kinase 38 (Homo sapiens), Q15208 R78A (Q15208 whole entry R78A): as the sequence (Q15208 whole entry R41A) above, with A41R, R78A counted along it
Chain of Serine/threonine-protein kinase 38 (Homo sapiens), Q15208 Y31A (Q15208 whole entry Y31A): as the sequence (Q15208 whole entry R41A) above, with Y31A, A41R counted along it
Chain of Serine/threonine-protein kinase 38-like (Homo sapiens), Q9Y2H1 Y32A (Q9Y2H1 whole entry Y32A): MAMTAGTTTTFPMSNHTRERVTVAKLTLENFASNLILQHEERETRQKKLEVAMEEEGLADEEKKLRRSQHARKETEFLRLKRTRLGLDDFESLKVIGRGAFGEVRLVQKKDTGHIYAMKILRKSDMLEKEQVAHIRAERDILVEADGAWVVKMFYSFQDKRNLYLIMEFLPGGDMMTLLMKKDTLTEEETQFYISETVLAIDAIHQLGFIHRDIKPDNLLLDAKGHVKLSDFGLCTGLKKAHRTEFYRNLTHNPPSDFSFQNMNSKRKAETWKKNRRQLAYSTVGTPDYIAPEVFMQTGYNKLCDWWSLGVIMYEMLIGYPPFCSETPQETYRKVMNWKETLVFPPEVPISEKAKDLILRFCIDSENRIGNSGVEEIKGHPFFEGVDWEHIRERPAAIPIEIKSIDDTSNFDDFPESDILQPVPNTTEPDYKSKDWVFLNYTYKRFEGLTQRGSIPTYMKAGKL
Chain of Serine/threonine-protein kinase 38 (Homo sapiens), Q15208 K24A (Q15208 whole entry K24A): as the sequence (Q15208 whole entry R41A) above, with K24A, A41R counted along it
Chain of Serine/threonine-protein kinase 38 (Homo sapiens), Q15208 R44A (Q15208 whole entry R44A): as the sequence (Q15208 whole entry R41A) above, with A41R, R44A counted along it

effect of a mutation on the interaction	Substance
decreasing interaction	Serine/threonine-protein kinase 38 (Homo sapiens), Q15208 K24A
decreasing interaction	Serine/threonine-protein kinase 38 (Homo sapiens), Q15208 L79A
disrupting interaction	Serine/threonine-protein kinase 38 (Homo sapiens), Q15208 R41A
decreasing interaction	Serine/threonine-protein kinase 38 (Homo sapiens), Q15208 R44A
disrupting interaction	Serine/threonine-protein kinase 38 (Homo sapiens), Q15208 R78A
disrupting interaction	Serine/threonine-protein kinase 38 (Homo sapiens), Q15208 T74A
disrupting interaction	Serine/threonine-protein kinase 38 (Homo sapiens), Q15208 Y31A

Target: mob1a_human MOB1A (UniProt Q9H8S9)
Remark: another data set of the same source

effect of a mutation on the interaction	Substance
disrupting interaction	Serine/threonine-protein kinase 38-like (Homo sapiens), Q9Y2H1 Y32A
